Assay results: patent publication US20200165323A1 (PANASONIC INTELLECTUAL PROPERTY MANAGEMENT, published 2020)

Molecular target: recombinant nucleoprotein (NP) protein derived from influenza virus H1N1 to which a Flag tag was fus (influenza virus H1N1)
Sequence (P03466 whole entry): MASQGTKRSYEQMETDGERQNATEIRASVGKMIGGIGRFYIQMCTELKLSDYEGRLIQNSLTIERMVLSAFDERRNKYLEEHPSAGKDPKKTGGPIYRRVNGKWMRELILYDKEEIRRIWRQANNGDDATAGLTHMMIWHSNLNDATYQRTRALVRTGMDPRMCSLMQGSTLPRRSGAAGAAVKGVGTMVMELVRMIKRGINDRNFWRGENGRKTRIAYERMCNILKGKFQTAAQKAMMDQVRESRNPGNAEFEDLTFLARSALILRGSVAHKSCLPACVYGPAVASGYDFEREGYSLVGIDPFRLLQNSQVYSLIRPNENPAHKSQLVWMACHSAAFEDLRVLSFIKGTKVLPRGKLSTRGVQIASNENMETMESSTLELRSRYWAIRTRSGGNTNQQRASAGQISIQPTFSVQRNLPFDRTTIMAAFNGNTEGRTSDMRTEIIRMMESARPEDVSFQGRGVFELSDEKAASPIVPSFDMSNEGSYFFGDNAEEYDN

B1: VHH antibody consisting of the amino acid sequence represented by SEQ ID NO: 8 (VHH)
VHH: QLQLVESGGGLVQAGGSLRLSCAASGSAFSLYAMGWHRQAPGKQRELVAYITNGDITNYADSVQGRVIISRDNAKNTVYLHMNSLKPEDTAVYYCYAVGGRTFWGQGTQVTVSS
B1 showed a Kd of 1.09 nM.
